One molecule from publication PMC11979331, “RcSRR1 interferes with the RcCSN5B-mediated deneddylation of RcCRL4 to modulate RcCO proteolysis and prevent rose flowering under red light” can be followed below.

This data set concerns the target T1, RcFRSL3 (UniProt A0A2P6RRT4 1-153).
T1 sequence: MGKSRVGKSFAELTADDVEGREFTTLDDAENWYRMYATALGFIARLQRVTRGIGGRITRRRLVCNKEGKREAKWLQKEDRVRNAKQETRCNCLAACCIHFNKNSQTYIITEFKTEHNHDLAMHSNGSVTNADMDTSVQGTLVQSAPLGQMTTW
In words: EMSA; Light Shift Chemiluminescent EMSA kit (buffer per manufacturer), about 2 ug protein, 24 C, 20 min; 6% native PAGE in 0.5x TBE; pH and salt not given. The settings on record: protein: recombinant; tags: GST (pGEX4T-1) per construct section; called His-RcFRSL3 in EMSA section; label: 3' biotin on both strands; blunt. On the technique in general: In EMSA bound probe runs differently from free probe, usually more slowly.

B1: RcSRR1 promoter G-box probe (dsDNA)
DNA 1: TTCAGGTACCGTATTCACGTTTTTCGAAGTTCAGGTACTA
DNA 2: TAGTACCTGAACTTCGAAAAACGTGAATACGGTACCTGAA
Take B1: the binding result is recorded as “binds”.
